According to patent US20180230218A1:

Experiments:
[1] = biological target: human cMET (MET, c-Met, HGF receptor) on cells (human) (UniProt P08581); test: cell-based or functional assay
[2] = biological target: human cMET (MET, c-Met, HGF receptor) on cells (human) (UniProt P08581); test: flow cytometry on MET-expressing BxPC3 cells, FITC anti-human IgG; 'affinity' (apparent)
[3] = biological target: human cMET (MET, c-Met, HGF receptor) on cells (human) (UniProt P08581); test: flow cytometry (FACS), direct binding to NCI-H441 cells expressing human cMET
[4] = biological target: human cMET (MET, c-Met, HGF receptor) on cells (human) (UniProt P08581); test: flow cytometry (FACS) on EBC-1 cells endogenously expressing human cMet, fluorescent secondary antibody

human cMET (MET, c-Met, HGF receptor) on cells (human), sequence (P08581 25-1390): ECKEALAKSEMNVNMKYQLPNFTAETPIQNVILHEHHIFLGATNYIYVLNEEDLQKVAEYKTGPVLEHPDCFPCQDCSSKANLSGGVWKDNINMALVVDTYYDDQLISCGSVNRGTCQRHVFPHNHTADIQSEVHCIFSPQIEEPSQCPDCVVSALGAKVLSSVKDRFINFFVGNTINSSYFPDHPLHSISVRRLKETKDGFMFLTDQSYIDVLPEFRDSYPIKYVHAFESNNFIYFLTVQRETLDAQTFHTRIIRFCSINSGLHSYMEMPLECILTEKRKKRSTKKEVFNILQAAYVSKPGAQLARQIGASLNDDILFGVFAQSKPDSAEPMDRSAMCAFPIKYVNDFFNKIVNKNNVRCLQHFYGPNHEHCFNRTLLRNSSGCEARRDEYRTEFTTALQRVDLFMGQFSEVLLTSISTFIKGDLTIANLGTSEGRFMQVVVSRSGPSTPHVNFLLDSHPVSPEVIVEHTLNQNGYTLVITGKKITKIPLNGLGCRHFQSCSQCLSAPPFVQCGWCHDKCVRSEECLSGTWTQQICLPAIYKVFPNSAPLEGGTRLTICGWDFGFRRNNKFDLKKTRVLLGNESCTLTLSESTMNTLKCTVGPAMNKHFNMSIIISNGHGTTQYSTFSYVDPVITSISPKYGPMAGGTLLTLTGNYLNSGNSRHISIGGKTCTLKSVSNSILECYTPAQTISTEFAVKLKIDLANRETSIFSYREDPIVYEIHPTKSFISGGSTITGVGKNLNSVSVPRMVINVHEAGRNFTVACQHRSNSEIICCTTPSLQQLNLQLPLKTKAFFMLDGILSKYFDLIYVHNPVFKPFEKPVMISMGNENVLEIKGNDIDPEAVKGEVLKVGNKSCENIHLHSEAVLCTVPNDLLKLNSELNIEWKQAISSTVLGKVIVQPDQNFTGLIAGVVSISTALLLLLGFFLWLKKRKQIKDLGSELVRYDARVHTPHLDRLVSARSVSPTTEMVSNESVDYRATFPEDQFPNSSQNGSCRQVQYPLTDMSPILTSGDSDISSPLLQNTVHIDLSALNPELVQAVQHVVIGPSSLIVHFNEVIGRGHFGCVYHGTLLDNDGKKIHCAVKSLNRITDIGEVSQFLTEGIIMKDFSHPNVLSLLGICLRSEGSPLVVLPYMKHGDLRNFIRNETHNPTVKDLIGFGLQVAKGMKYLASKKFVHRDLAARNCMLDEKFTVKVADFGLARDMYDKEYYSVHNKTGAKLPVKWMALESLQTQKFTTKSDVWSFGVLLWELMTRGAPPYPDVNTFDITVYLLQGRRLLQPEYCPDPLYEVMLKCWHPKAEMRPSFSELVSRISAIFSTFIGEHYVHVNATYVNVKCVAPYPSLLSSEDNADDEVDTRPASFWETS

Binder | EC50 (read off the curve) [3] | EC50 (read off the curve) [4] | further results
hu247.22.2-SMCC-DM1 (antibody, human IgG1, kappa, V domains shown, DM1 linked through SMCC, average of 3-4 DM1 molecules per antibody; sites (heavy or light chain) not stated) VH: EVQLVQSGAEVVKPGASVKIPCKASGYTFTDYNMDWVRQSPGKSLEWIGDLNPNNGATIYNEKFQGKATLTVDTSSSTAYMELRSLTSEDTAVYYCARGNYYGNYYYLMDYWGQGTSVTVSS VL: DIQMTQSPSSLSVSVGERVTITCRASENIYSTLAWYQQKPGKSPKLLVYAATNLADGVPSRFSGSGSGTEYSLKINSLQPDDFGSYYCQHFWGTPYTFGGGTKLEIKR |  |  | in vitro cytotoxicity in MET-expressing MKN45 cells, EC50 [1]: 0.07 nM; Kd [2]: 0.08 nM
hu247.22.2-SPDB-DM4 (antibody, human IgG1, kappa, V domains shown, DM4 linked through SPDB; number and sites not stated for this conjugate) VH: EVQLVQSGAEVVKPGASVKIPCKASGYTFTDYNMDWVRQSPGKSLEWIGDLNPNNGATIYNEKFQGKATLTVDTSSSTAYMELRSLTSEDTAVYYCARGNYYGNYYYLMDYWGQGTSVTVSS VL: DIQMTQSPSSLSVSVGERVTITCRASENIYSTLAWYQQKPGKSPKLLVYAATNLADGVPSRFSGSGSGTEYSLKINSLQPDDFGSYYCQHFWGTPYTFGGGTKLEIKR |  |  | Kd [2]: 0.07 nM
hu247.22.2 (antibody, human IgG1, kappa, V domains shown) VH: EVQLVQSGAEVVKPGASVKIPCKASGYTFTDYNMDWVRQSPGKSLEWIGDLNPNNGATIYNEKFQGKATLTVDTSSSTAYMELRSLTSEDTAVYYCARGNYYGNYYYLMDYWGQGTSVTVSS VL: DIQMTQSPSSLSVSVGERVTITCRASENIYSTLAWYQQKPGKSPKLLVYAATNLADGVPSRFSGSGSGTEYSLKINSLQPDDFGSYYCQHFWGTPYTFGGGTKLEIKR |  |  | Kd [2]: 0.09 nM
hucMet27v1.2 (antibody, human IgG1, kappa, V domains shown) VH: EVQLVESGGGLVQPGGSLRLSCAASGFTFSSYDMSWVRQTPGKGLELVATINSNGVSIYYPDSVKGRFTISRDIAKNTLYLQMSSLRAEDTAMYYCAREEITTEMDYWGQGTSVTVSS VL: DIVLTQSPASLAVSPGQRATISCRASESVDSYGNSFIHWYQQKPGQPPKLLIYRASNLESGIPARFSGSGSRTDFTLTINPVEANDVATYYCQQSNEEPLTFGGGTKLELKR | 0.4 nM | 0.3 nM | 
hucMet27Gv1.2-DGN549 (antibody, human IgG1, kappa, V domains shown, DGN549 conjugate; linkage site not stated for this antibody) VH: EVQLVESGGGLVQPGGSLRLSCAASGFTFSSYDMSWVRQAPGKGLELVATINSNGVSIYYPDSVKGRFTISRDIAKNSLYLQMNSLRAEDTAVYYCAREEITTEMDYWGQGTLVTVSS VL: EIVLTQSPATLSLSPGERATLSCRASESVDSYGNSFIHWYQQKPGQAPRLLIYRASNLESGIPARFSGSGSGTDFTLTISSLEPEDFAVYYCQQSNEEPLTFGQGTKVELKR |  | 0.4 nM | 
hucMET27Gv1.1 (antibody, human IgG1, kappa, V domains shown) VH: EVQLVESGGGLVQPGGSLRLSCAASGFTFSSYDMSWVRQAPGKGLEWVSTINSNGVSIYYPDSVKGRFTISRDNAKNSLYLQMNSLRAEDTAVYYCAREEITTEMDYWGQGTLVTVSS VL: EIVLTQSPATLSLSPGERATLSCRASESVDSYGNSFIHWYQQKPGQAPRLLIYRASNLESGIPARFSGSGSGTDFTLTISSLEPEDFAVYYCQQSNEEPLTFGQGTKVELKR | 0.2 nM |  | 
hucMet27Gv1.2 (antibody, human IgG1, kappa, V domains shown) VH: EVQLVESGGGLVQPGGSLRLSCAASGFTFSSYDMSWVRQAPGKGLELVATINSNGVSIYYPDSVKGRFTISRDIAKNSLYLQMNSLRAEDTAVYYCAREEITTEMDYWGQGTLVTVSS VL: EIVLTQSPATLSLSPGERATLSCRASESVDSYGNSFIHWYQQKPGQAPRLLIYRASNLESGIPARFSGSGSGTDFTLTISSLEPEDFAVYYCQQSNEEPLTFGQGTKVELKR | 0.2 nM | 0.5 nM | 
hucMet27v1.2-sSPDB-DM4 (antibody, human IgG1, kappa, V domains shown, lysines linked to sSPDB-DM4, on average 3-4 DM4 per antibody) VH: EVQLVESGGGLVQPGGSLRLSCAASGFTFSSYDMSWVRQTPGKGLELVATINSNGVSIYYPDSVKGRFTISRDIAKNTLYLQMSSLRAEDTAMYYCAREEITTEMDYWGQGTSVTVSS VL: DIVLTQSPASLAVSPGQRATISCRASESVDSYGNSFIHWYQQKPGQPPKLLIYRASNLESGIPARFSGSGSRTDFTLTINPVEANDVATYYCQQSNEEPLTFGGGTKLELKR |  | 0.2 nM | 
hucMet27v1.2-DGN549 (antibody, human IgG1, kappa, V domains shown, lysine-linked DGN549) VH: EVQLVESGGGLVQPGGSLRLSCAASGFTFSSYDMSWVRQTPGKGLELVATINSNGVSIYYPDSVKGRFTISRDIAKNTLYLQMSSLRAEDTAMYYCAREEITTEMDYWGQGTSVTVSS VL: DIVLTQSPASLAVSPGQRATISCRASESVDSYGNSFIHWYQQKPGQPPKLLIYRASNLESGIPARFSGSGSRTDFTLTINPVEANDVATYYCQQSNEEPLTFGGGTKLELKR |  | 0.4 nM | 
hucMET27Gv2.1 (antibody, human IgG1, kappa, V domains shown) VH: EVQLVESGGGLVQPGGSLRLSCAASGFTFSSYDMSWVRQAPGKGLEWVSTINSNGVSIYYPDSVKGRFTISRDNAKNSLYLQMNSLRAEDTAVYYCAREEITTEMDYWGQGTLVTVSS VL: EIVLTQSPATLSLSPGERATLSCRASESVDSYGNSFIHWYQQKPGQAPRLLIYRASNLESGIPARFSGSGSRTDFTLTISSLEPEDFAVYYCQQSNEEPLTFGQGTKVELKR | 0.2 nM |  | 
hucMET27Gv2.2 (antibody, human IgG1, kappa, V domains shown) VH: EVQLVESGGGLVQPGGSLRLSCAASGFTFSSYDMSWVRQAPGKGLELVATINSNGVSIYYPDSVKGRFTISRDIAKNSLYLQMNSLRAEDTAVYYCAREEITTEMDYWGQGTLVTVSS VL: EIVLTQSPATLSLSPGERATLSCRASESVDSYGNSFIHWYQQKPGQAPRLLIYRASNLESGIPARFSGSGSRTDFTLTISSLEPEDFAVYYCQQSNEEPLTFGQGTKVELKR | 0.2 nM |  | 
hucMet27Gv1.2-sSPDB-DM4 (antibody, human IgG1, kappa, V domains shown, sSPDB-DM4 conjugate; preparation of this one not described) VH: EVQLVESGGGLVQPGGSLRLSCAASGFTFSSYDMSWVRQAPGKGLELVATINSNGVSIYYPDSVKGRFTISRDIAKNSLYLQMNSLRAEDTAVYYCAREEITTEMDYWGQGTLVTVSS VL: EIVLTQSPATLSLSPGERATLSCRASESVDSYGNSFIHWYQQKPGQAPRLLIYRASNLESGIPARFSGSGSGTDFTLTISSLEPEDFAVYYCQQSNEEPLTFGQGTKVELKR |  | 0.5 nM | 
hucMet22Gv2.2 (antibody, V domains shown) VH: QVQLVQSGAEVKKPGASVKVSCKASGYTFTDYNMDWVRQAPGQRLEWIGDLNPNNGATIYNQKFKGRATLTVDMSASTAYMELSSLRSEDTAVYYCARGNYYGNYYYLMDYWGQGTSVTVSS VL: DIQMTQSPSSLSASVGDRVTITCRASENIYSTLAWYQQKPGKAPKLLVYAATNLADGVPSRFSGSGSGTDYTLTISSLQPEDFATYYCQHFWGTPYTFGQGTKVEIKR |  | 0.1 nM | percent induction of NCI-H441 cell growth (WST-8), normalised to 100 ng/mL HGF [1]: 72%
hucMet22Gv2.2-DGN549 (antibody, human IgG1, kappa, V domains shown, DGN549 conjugate; linkage site not stated for this antibody) VH: QVQLVQSGAEVKKPGASVKVSCKASGYTFTDYNMDWVRQAPGQRLEWIGDLNPNNGATIYNQKFKGRATLTVDMSASTAYMELSSLRSEDTAVYYCARGNYYGNYYYLMDYWGQGTSVTVSS VL: DIQMTQSPSSLSASVGDRVTITCRASENIYSTLAWYQQKPGKAPKLLVYAATNLADGVPSRFSGSGSGTDYTLTISSLQPEDFATYYCQHFWGTPYTFGQGTKVEIKR |  | 0.2 nM | 
hucMet22Gv2.2-sSPDB-DM4 (antibody, human IgG1, kappa, V domains shown, lysines linked to sSPDB-DM4, on average 3-4 DM4 per antibody) VH: QVQLVQSGAEVKKPGASVKVSCKASGYTFTDYNMDWVRQAPGQRLEWIGDLNPNNGATIYNQKFKGRATLTVDMSASTAYMELSSLRSEDTAVYYCARGNYYGNYYYLMDYWGQGTSVTVSS VL: DIQMTQSPSSLSASVGDRVTITCRASENIYSTLAWYQQKPGKAPKLLVYAATNLADGVPSRFSGSGSGTDYTLTISSLQPEDFATYYCQHFWGTPYTFGQGTKVEIKR |  | 0.2 nM | 
